Measurements taken from patent US20250152742A1, “COMPOSITIONS AND METHODS FOR NEUROLOGICAL DISEASES” (Trames Bio, Inc., priority 2022, published 2025).

System: engineered chimeric receptor SEQ ID NO: 33 and its mutants (human α7-nAChR ligand binding domain / human GlyRα1 ion pore domain) in Lenti-X 293T cells
Assay: YFP fluorescence quenching anion reporter plate reader assay (percent quench, EC50)
Format: cell-based
Conditions: for YFP fluorescence quenching using CNL001 (percent quench): receptor named in row; for YFP fluorescence quenching using Varenicline, 3 nM var: ligand Varenicline 3 nM; for YFP fluorescence quenching using Varenicline, 30 nM var: ligand Varenicline 30 nM; for YFP fluorescence quenching using Varenicline, 300 nM var: ligand Varenicline 300 nM; for YFP fluorescence quenching using Varenicline, 500 nM var: ligand Varenicline 500 nM; for YFP fluorescence quenching using Varenicline, 1 uM var: ligand Varenicline 1 uM
Method in brief: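 Lenti-X 293T cells co-expressing an anion-quenchable YFP were transiently transfected with receptor DNA, then ligand was added in NaI-substituted buffer (pH 7.2) after 30 min at 37 °C. Fluorescence was read about 2 min; percent quench = mean of last 10 s over 15 s pre-ligand baseline.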

B1: CODA340: engineered receptor: L131E in SEQ ID NO: 33 (protein)
chain: MRCSPGGVWLALAASLLHVSLQGEFQRKLYKELVKNYNPLERPVANDSQPLTVYFSLSLLQIMDVDEKNQVLTTNIWLQMSWTDHYLQWNVSEYPGVKTVRFPDGQIWKPDILLYNSADERFDATFHTNVEVNSSGHCQYLPPGIFKSSCPMDLKNFPMDVQTCKLKFGSWSYGGWSLDLQMQEADISGYIPNGEWDLVGIPGKRSERFYECCKEPYPDVTFTVTMRRRMGYYLIQMYIPSLLIVILSWISFWINMDAAPARVGLGITTVLTMTTQSSGSRASLPKVSYVKAIDIWMAVCLLFVFSALLEYAAVNFVSRQHKELLRFRRKRRHHKSPMLNLFQEDEAGEGRFNFSAYGMGPACLQAKDGISVKGANNSNTTNPPPAPSKSPEEMRKLFIQRAKKIDKISRIGFPMAFLIFNMFYWIIYKIVRREDVHNQ
modifications: synthetic sequence of chimeric LGIC
- YFP fluorescence quenching using CNL001 (percent quench) (1 nM CNL001, first column so headed): 76.413%
- YFP fluorescence quenching using CNL001 (percent quench) (1 nM CNL001, second column so headed): 77.144%
- YFP fluorescence quenching using TC-5619/Bradanicline (percent quench) (3 nM brd (TC-5619/Bradanicline)): 68.57%
- YFP fluorescence quenching using CNL001 (percent quench) (10 nM CNL001, first column so headed): 78.258%
- YFP fluorescence quenching using CNL001 (percent quench) (10 nM CNL001, second column so headed): 78.763%
- YFP fluorescence quenching using TC-6683 (percent quench) (30 nM TC-6683): 30.14%
- YFP fluorescence quenching using TC-5619/Bradanicline (percent quench) (30 nM brd (TC-5619/Bradanicline)): 76.85%
- YFP fluorescence quenching using CNL001 (percent quench) (50 nM CNL001, first column so headed): 79.757%
- YFP fluorescence quenching using CNL001 (percent quench) (50 nM CNL001, second column so headed): 79.327%
- YFP fluorescence quenching using ABT-126 (percent quench) (50 nM abt (ABT-126)): 2.2%
- YFP fluorescence quenching using CNL001 (percent quench) (100 nM CNL001, first column so headed): 79.011%
- YFP fluorescence quenching using CNL001 (percent quench) (100 nM CNL001, second column so headed): 79.948%
- YFP fluorescence quenching (percent quench) (100 nM CNL002): 49.97%
- YFP fluorescence quenching using ABT-126 (percent quench) (100 nM abt (ABT-126)): 25.39%
- YFP fluorescence quenching using AZD-0328 (percent quench) (100 nM azd0328): 82.48%
- YFP fluorescence quenching using TC-6683 (percent quench) (300 nM TC-6683): 33.02%
- YFP fluorescence quenching using ABT-126 (percent quench) (300 nM abt (ABT-126)): 36.48%
- YFP fluorescence quenching using AZD-0328 (percent quench) (300 nM azd0328): 82.04%
- YFP fluorescence quenching using TC-5619/Bradanicline (percent quench) (300 nM brd (TC-5619/Bradanicline)): 78.49%
- YFP fluorescence quenching using CNL001 (percent quench) (1 uM CNL001, first column so headed): 79.855%
- YFP fluorescence quenching using CNL001 (percent quench) (1 uM CNL001, second column so headed): 80.618%
- YFP fluorescence quenching (percent quench) (1 uM CNL002): 67.8%
- YFP fluorescence quenching using ABT-126 (percent quench) (1 uM abt (ABT-126)): 50.76%
- YFP fluorescence quenching using TC-6683 (percent quench) (3 uM TC-6683): 41.68%
- YFP fluorescence quenching (percent quench) (10 uM ach (acetylcholine)): 15.29%
- YFP fluorescence quenching (percent quench) (30 uM CNL002): 64.58%
- YFP fluorescence quenching using TC-6683 (percent quench) (30 uM TC-6683): 35.75%
- YFP fluorescence quenching (percent quench) (30 uM ach (acetylcholine)): 66.56%
- YFP fluorescence quenching using AZD-0328 (percent quench) (30 uM azd0328): 81.8%
- YFP fluorescence quenching using TC-6683 (percent quench) (100 uM TC-6683): 24.32%
- YFP fluorescence quenching (percent quench) (100 uM ach (acetylcholine)): 81.31%
- YFP fluorescence quenching (percent quench) (1 mM ach (acetylcholine)): 80.77%
- YFP fluorescence quenching (percent quench) (3 mM ach (acetylcholine)): 77.31%
- YFP fluorescence quenching using Facinicline, 30 nM fac (ligand Facinicline 30 nM): 82.51
- YFP fluorescence quenching using Facinicline, 100 nM fac (ligand Facinicline 100 nM): 83.6
- YFP fluorescence quenching using Facinicline, 300 nM fac (ligand Facinicline 300 nM): 82.92
- YFP fluorescence quenching using Facinicline, 30 uM fac (ligand Facinicline 30 uM): 82.68
- YFP fluorescence quenching using TC-6987, 1 uM tc6987 (ligand TC-6987 1 uM): 80.13
- YFP fluorescence quenching using TC-6987, 10 uM tc6987 (ligand TC-6987 10 uM): 81.29
- YFP fluorescence quenching using TC-6987, 500 uM tc6987 (ligand TC-6987 500 uM): 79.6
- YFP fluorescence quenching using Varenicline, 3 nM var (first column): −4.061
- YFP fluorescence quenching using Varenicline, 3 nM var (second column): −0.568
- YFP fluorescence quenching using Varenicline, 30 nM var (first column): 62.964
- YFP fluorescence quenching using Varenicline, 30 nM var (second column): 63.631
- YFP fluorescence quenching using Varenicline, 300 nM var (first column): 74.912
- YFP fluorescence quenching using Varenicline, 300 nM var (second column): 75.084
- YFP fluorescence quenching using Varenicline, 500 nM var (first column): 76.346
- YFP fluorescence quenching using Varenicline, 500 nM var (second column): 75.876
- YFP fluorescence quenching using Varenicline, 1 uM var (first column): 75.805
- YFP fluorescence quenching using Varenicline, 1 uM var (second column): 74.856
